For series [1], the target named is Histone H1.0 (human) (UniProt P07305). Nature of the series: FRET. Conditions: FRET/PIFE/EMSA: 5 nM nucleosomes, 10 mM Tris-HCl pH 8.0, 130 mM NaCl, 10% glycerol, 0.005% Tween20, 10 min at 20 C, EMSA on 4% polyacrylamide, 0.3x TTE. (In general: A gel shift assay detects complexes by their altered migration in electrophoresis.)
A further series addresses Histone H1.2 (human) (UniProt P16403). Nature of the series: FRET. The note with it: AmC6dT at position 43; human octamer H2A(K119C), H2B, H3(C110A), H4; FRET/PIFE/EMSA: 5 nM nucleosomes, 10 mM Tris-HCl pH 8.0, 130 mM NaCl, 10% glycerol, 0.005% Tween20, 10 min at 20 C; EMSA on 4% polyacrylamide, 0.3x TTE.
The next series has as its target Histone H1.x (human) (UniProt Q92522). As to the kind of experiment: FRET. The note with it: AmC6dT at position 43; human octamer H2A(K119C), H2B, H3(C110A), H4; FRET/PIFE/EMSA: 5 nM nucleosomes, 10 mM Tris-HCl pH 8.0, 130 mM NaCl, 10% glycerol, 0.005% Tween20, 10 min at 20 C; EMSA on 4% polyacrylamide, 0.3x TTE.
For series [2], the target named is Cy3-Cy5 labelled unmodified nucleosome (Cy3-L DNA, Cy5 on H2A K119C) (human) (UniProt P0C0S8). Nature of the series: other fluorescence titration; FRET efficiency between Cy3 on the DNA and Cy5 on the histone octamer (reports DNA wrapping) against H1 concentration; 5 nM nucleosomes, 0-300 nM H1, 10 mM Tris-HCl pH 8.0, 130 mM NaCl, 10% glycerol, 0.005% TWEEN20, 10 min at 20 C; Hill curve, S1/2; points of aggregated nucleosomes excluded.

Series [3] deals with Histone H1.0 (human) (UniProt P07305). As to the kind of experiment: PIFE. Conditions: AmC6dT at position 43; unlabelled human octamer; FRET/PIFE/EMSA: 5 nM nucleosomes, 10 mM Tris-HCl pH 8.0, 130 mM NaCl, 10% glycerol, 0.005% Tween20, 10 min at 20 C; EMSA on 4% polyacrylamide, 0.3x TTE.
In series [4] the target is Cy3 only labelled unmodified nucleosome (Cy3-L DNA, unlabelled histone octamer) (human) (UniProt P0C0S8). Nature of the series: other fluorescence titration; PIFE (protein-induced fluorescence enhancement) of Cy3 on the linker DNA of Cy3 only nucleosomes; 5 nM nucleosomes, 0-300 nM H1 and/or 0-1,000 nM Gal4, 10 mM Tris-HCl pH 8.0, 130 mM NaCl, 10% glycerol, 0.005% TWEEN20, 10 min at 20 C; Hill curve, S1/2.

Series [5] deals with Cy3-Cy5 labelled H3K56ac nucleosome (Cy3-L DNA) (UniProt P0C0S8). Nature of the series: other fluorescence titration; FRET efficiency between Cy3 on the DNA and Cy5 on the histone octamer (reports DNA wrapping) against H1 concentration; 5 nM nucleosomes, 0-300 nM H1, 10 mM Tris-HCl pH 8.0, 130 mM NaCl, 10% glycerol, 0.005% TWEEN20, 10 min at 20 C; Hill curve, S1/2; points of aggregated nucleosomes excluded.

Series [6] addresses Cy3-Cy5 labelled H3K56Q nucleosome (Cy3-L DNA) (human) (UniProt P0C0S8). The description is as above.
The target in series [7] is Cy3-Cy5 labelled H3K122ac nucleosome (Cy3-L DNA) (UniProt P0C0S8). The description is as above.

Substance “CTGGAGACCGGAGGGCTGCCCTCCGGTCAATTGGTCGTAGACAGCTCTAGCACCGCTTAAACGCACGTACGCGCTGTCCCCCGCGTTTTAACCGCCAAGGGGATTACTCCCTAGTCTCCAGGCACGTGTCAGATATATACATCCTGTATAATGCATAGGGCAGTGAGTTGACGCTACAATCACGAATTCTGGATCCGATACGTAACGCGTCTGCAGCATGCG (double strand) [Linker-R nucleosome]” had a K half with Histone H1.0 (human) [1] (smaller FRET change, 5' AminoC6, human octamer) of 11 nM. For the substance “AAGCTTGTCGACGAATTCAGATATAAGGAGGACACTGGGACATGCATCGGCTGGAGACCGGAGGGCTGCCCTCCGGTCAATTGGTCGTAGACAGCTCTAGCACCGCTTAAACGCACGTACGCGCTGTCCCCCGCGTTTTAACCGCCAAGGGGATTACTCCCTAGTCTCCAGGCACGTGTCAGATATATACATCCTGTATAATGCATAGGGCAGTGAGTTGACGCTACAATCACGAATTCTGGATCCGATACGTAACGCGTCTGCAGCATGCG (double strand) [Cy3-L nucleosome, unmodified, Cy5-H2A(K119C)]”, the K half came out at 6 nM with Histone H1.2 (human); 13 nM with Histone H1.x (human); 9 nM in the series with Histone H1.0 (human) [1] (AmC6dT at position 43, human octamer H2A(K119C), H2B, H3(C110A), H4).

As for “human linker histone H1.2, 6xHis tagged (from UniProt P16403 1-213) (natural protein)”, the S1/2 in [2] is 6 nM. Same read-out and setting: then “human linker histone H1.x, 6xHis tagged (from UniProt Q92522 1-213) (natural protein)”, with 13 nM.

In the series with Histone H1.0 (human) [3], “AAGCTTGTCGACGAATTCAGATATAAGGAGGACACTGGGACATGCATCGGCTGGAGACCGGAGGGCTGCCCTCCGGTCAATTGGTCGTAGACAGCTCTAGCACCGCTTAAACGCACGTACGCGCTGTCCCCCGCGTTTTAACCGCCAAGGGGATTACTCCCTAGTCTCCAGGCACGTGTCAGATATATACATCCTGTATAATGCATAGGGCAGTGAGTTGACGCTACAATCACGAATTCTGGATCCGATACGTAACGCGTCTGCAGCATGCG (double strand) [Cy3-L nucleosome, unmodified, Cy3 only]” returned a K half of 13 nM. For the substance “human linker histone H1.0 (from UniProt P07305 1-194) (natural protein)”, the S1/2 in series [4] stood at 13 nM; in series [5], 14 nM; in series [6], 15 nM; in series [2], 9 nM; in series [7], 14 nM. Turning to “AAGCTTGTCGACGAATTCAGATATAAGGAGGACACTGGGACATGCATCGGCTGGAGACCGGAGGGCTGCCCTCCGGTCAATTGGTCGTAGACAGCTCTAGCACCGCTTAAACGCACGTACGCGCTGTCCCCCGCGTTTTAACCGCCAAGGGGATTACTCCCTAGTCTCCAGGCACGTGTCAGATATATACATCCTGT (double strand) [Linker-L nucleosome]”, the K half with Histone H1.0 (human) [1] (AmC6dT at position 43, human octamer) was 12 nM.
